These results are taken from the supplement of paper PMC9112550, “Optimization of the antimicrobial peptide Bac7 by deep mutational scanning” (BMC Biology, 2022).

The data set has as its system Escherichia coli TOP10. Put plainly: shrunken log2 fold change of peptide-encoding DNA abundance (4.5 h post-induction vs induction); higher = less antimicrobial activity (less host growth inhibition). To be noted: time post-induction: 4.5 h; library: site-saturation at positions 5, 18, 19, 20.
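Also: peptides expressed intracellularly from a pBAD plasmid library in pooled LB shake-flask culture, induced with 0.3% L-arabinose, DNA abundance read by NGS, three biological replicates, DESeq2 with apeglm shrinkage.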

On to RRIRKRPPRLPRPRPRPVSKPRP, for which the “shrunken log2 fold change” value turned out to be 0.128.

Consider RRIRHRPPRLPRPRPRPDGNPRP, for which the “shrunken log2 fold change” value is -0.105.

Take RRIRWRPPRLPRPRPRPCLMPRP: the “shrunken log2 fold change” value was -0.225.

As to RRIRWRPPRLPRPRPRPMVIPRP, the “shrunken log2 fold change” value is -0.14.

Take RRIRQRPPRLPRPRPRPMMDPRP: the “shrunken log2 fold change” value is -0.137.

Regarding RRIRNRPPRLPRPRPRPFSAPRP, the “shrunken log2 fold change” value was -0.264.

Take RRIRYRPPRLPRPRPRPPKHPRP: the “shrunken log2 fold change” value was -0.165.

Take RRIRLRPPRLPRPRPRPDIVPRP: the “shrunken log2 fold change” value was -0.0115.

As to RRIRVRPPRLPRPRPRPQIHPRP, the “shrunken log2 fold change” value is -1.01.

RRIRCRPPRLPRPRPRPMFKPRP: the “shrunken log2 fold change” value was -0.536.

With RRIRTRPPRLPRPRPRPVCRPRP, the “shrunken log2 fold change” value came to 0.0309.

Consider RRIRVRPPRLPRPRPRPITHPRP, for which the “shrunken log2 fold change” value was -0.171.

As to RRIRNRPPRLPRPRPRPFKCPRP, the “shrunken log2 fold change” value is -0.0598.

As for RRIRDRPPRLPRPRPRPFRPPRP, the “shrunken log2 fold change” value is 0.0778.

On to RRIRCRPPRLPRPRPRPEVFPRP, for which the “shrunken log2 fold change” value came out at 0.00979.

Consider RRIRDRPPRLPRPRPRPCWFPRP, for which the “shrunken log2 fold change” value is -0.0292.

Consider RRIRRRPPRLPRPRPRPGYYPRP, for which the “shrunken log2 fold change” value is -0.105.

As to RRIRGRPPRLPRPRPRPMLPPRP, the “shrunken log2 fold change” value stood at 0.242.

On to RRIRERPPRLPRPRPRPNFKPRP, for which the “shrunken log2 fold change” value was -0.181.

Regarding RRIRDRPPRLPRPRPRPEHCPRP, the “shrunken log2 fold change” value is -0.0205.

With RRIRWRPPRLPRPRPRPWWQPRP, the “shrunken log2 fold change” value was 0.16.

With RRIRSRPPRLPRPRPRPMPPPRP, the “shrunken log2 fold change” value turned out to be 0.435.

RRIRMRPPRLPRPRPRPFLRPRP: the “shrunken log2 fold change” value is -0.22.

Regarding RRIRNRPPRLPRPRPRPFWMPRP, the “shrunken log2 fold change” value was -0.112.

RRIRGRPPRLPRPRPRPDKFPRP: the “shrunken log2 fold change” value was 0.0879.

Consider RRIRLRPPRLPRPRPRPKNDPRP, for which the “shrunken log2 fold change” value was -0.563.

Turning to RRIRNRPPRLPRPRPRPESPPRP, the “shrunken log2 fold change” value worked out at 0.0142.

RRIRDRPPRLPRPRPRPCCFPRP: the “shrunken log2 fold change” value stood at 0.395.

As for RRIRWRPPRLPRPRPRPASPPRP, the “shrunken log2 fold change” value stood at 0.131.

Turning to RRIRERPPRLPRPRPRPAAIPRP, the “shrunken log2 fold change” value was -0.215.

On to RRIRRRPPRLPRPRPRPYNIPRP, for which the “shrunken log2 fold change” value is -0.464.

With RRIRHRPPRLPRPRPRPSYEPRP, the “shrunken log2 fold change” value was -0.503.

Regarding RRIRWRPPRLPRPRPRPFQQPRP, the “shrunken log2 fold change” value is -0.0106.

As for RRIRWRPPRLPRPRPRPMHAPRP, the “shrunken log2 fold change” value was 0.542.

Regarding RRIRQRPPRLPRPRPRPIPSPRP, the “shrunken log2 fold change” value was -0.0138.

RRIRMRPPRLPRPRPRPPCIPRP: the “shrunken log2 fold change” value was -0.143.

RRIRGRPPRLPRPRPRPAARPRP: the “shrunken log2 fold change” value came out at 1.16.

For RRIRYRPPRLPRPRPRPEVIPRP, the “shrunken log2 fold change” value was -0.01.

For the sequence RRIRTRPPRLPRPRPRPCGRPRP, the “shrunken log2 fold change” value stood at 0.155.

Consider RRIRIRPPRLPRPRPRPVVDPRP, for which the “shrunken log2 fold change” value is -0.105.

With RRIRVRPPRLPRPRPRPWFGPRP, the “shrunken log2 fold change” value was found to be 0.0293.

Take RRIRFRPPRLPRPRPRPTEFPRP: the “shrunken log2 fold change” value was -0.217.

Turning to RRIRFRPPRLPRPRPRPQEAPRP, the “shrunken log2 fold change” value is 0.201.

For RRIRSRPPRLPRPRPRPINCPRP, the “shrunken log2 fold change” value is -0.159.

As to RRIRERPPRLPRPRPRPIWCPRP, the “shrunken log2 fold change” value stood at 0.000213.

As for RRIRARPPRLPRPRPRPQRYPRP, the “shrunken log2 fold change” value is -0.071.

Take RRIRMRPPRLPRPRPRPRRNPRP: the “shrunken log2 fold change” value turned out to be 0.807.

For RRIRPRPPRLPRPRPRPWKHPRP, the “shrunken log2 fold change” value was -0.19.

As for RRIRARPPRLPRPRPRPCPPPRP, the “shrunken log2 fold change” value turned out to be 0.156.

As to RRIRDRPPRLPRPRPRPHDYPRP, the “shrunken log2 fold change” value was -0.0787.
